Reference: US20240093310A1 (Dana-Farber, published 2024)

How the values were obtained:
wild-type human C-RAF = target: T1, wild-type human C-RAF (human, UniProt P04049 1-648); test: C-RAF immunoprecipitation, 14-3-3ζ immunoblot, A375 cells with and without 2 µM vemurafenib (FIG. 7B)
T1 construct: In the homodimerization assays the copies carried a His/V5 tag or a Flag tag; also called WT-C-RAF; C-RAF (WT)

[1] = target: T2, C-RAF P261T resistance mutant (human, UniProt P04049 1-648); test: C-RAF immunoprecipitation, 14-3-3ζ immunoblot, 293T and A375 cells, no RAF inhibitor (FIG. 7A, 7B)
T2 construct: His/V5- or Flag-tagged in the homodimerization assays

[2] = target: T3, C-RAF S257P resistance mutant (human, UniProt P04049 1-648); test: as above
T3 construct: His/V5- or Flag-tagged in the homodimerization assays

[3] = target: T4, C-RAF G361A resistance mutant (human, UniProt P04049 1-648); test: as above
T4 construct: His/V5- or Flag-tagged in the homodimerization assays; also called 361G>A

Measured: binding result

B1: 14-3-3 ζ (other, UniProt P63104 1-245, looked up)
chain: MDKNELVQKAKLAEQAERYDDMAACMKSVTEQGAELSNEERNLLSVAYKNVVGARRSSWRVVSSIEQKTEGAEKKQQMAREYREKIETELRDICNDVLSLLEKFLIPNASQAESKVFYLKMKGDYYRYLAEVAAGDDKKGIVDQSQQAYQEAFEISKKEMQPTHPIRLGLALNFSVFYYEILNSPEKACSLAKTAFDEAIAELDTLSEESYKDSTLIMQLLRDNLTLWTSDTQGDEAEAGEGGEN
notes: The Western blot methods list a 14-3-3ζ antibody (Cell Signaling)
binds: all assays above
